According to patent US20190071490A1 (BETH ISRAEL DEACONESS MEDICAL CENTER, published 2019):
Changes are numbered by the printed parent chain. Numbers in names are those of the source. Blank lines part the entries; values can stand above or below the binder they belong to.

Key:
[1] = target: T1, human α-CGRP 1-37 (WT) (human, C-terminal amide; N-terminal biotin when captured on the SA chip; 125I-labelled in the radioligand assay); assay: Biacore, 37°C, Fab over CGRP on SA chip
T1 construct: also called α-human
T1 peptide: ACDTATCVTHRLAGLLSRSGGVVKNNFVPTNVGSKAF
Procedure: (§1) Biacore assay for affinity determination. […] All Biacore assays were conducted in HBS-EP running buffer (10 mM HEPES pH 7.4, 150 mM NaCl, 3 mM EDTA, 0.005% v/v polysorbate P20). CGRP surfaces were prepared by diluting the N-biotinylated CGRP to a concentration of less than 0.001 mg/mL into HBS-EP buffer and injecting it across the SA sensor chip using variable contact times. […] Samples were typically injected for 1 minute at 100 μL/min and dissociation times of at least 10 minutes were allowed. […] An entire titration series (typically generated in duplicate) was fit globally to a 1:1 Langmuir binding model using the BIAevaluation program. This returned a unique pair of association and dissociation kinetic rate constants (respectively, kₒₙ and koff) for each binding interaction, whose ratio gave the equilibrium dissociation constant (KD=koff/kₒₙ). […]

[2] = target: T2, rat α-CGRP (1-37) (rat, C-terminal amide; N-terminal biotin when captured on the SA chip); assay: Biacore, 37°C, Fab over CGRP on SA chip
T2 construct: also called rat α (1-37); α-rat
T2 peptide: T1 peptide with A1S, D3N, N25D, K35E
Procedure: as §1

B4: G1 variant M36 Fab (Fab, V domains shown)
VH: EVQLVESGGGLVQPGGSLRLSCAASGFTFSNYWISWVRQAPGKGLEWVAEIRSESDASATHYAEAVKGRFTISRDNAKNSLYLQMNSLRAEDTAVYYCTVYFDYGLAIQNYWGQGTLVTVSS
VL: EIVLTQSPATLSLSPGERATLSCKASKNVRTYVSWYQQKPGQAPRLLIYGASNRYLGIPARFSGSGSGTDFTLTISSLEPEDFAVYYCSQSYNYPYTFGQGTKLEIK
notes: Fab; constant domains as m1
Kd [1]: 1.49 nM
koff [1]: 0.000239 s⁻¹
Kd [2]: 266 nM
koff [2]: 0.00479 s⁻¹

B5: G1 variant M35 Fab (Fab, V domains shown)
VH: B4 VH with E54K, A57S
VL: B4 VL with R30G
notes: Fab; constant domains as m1
Kd [1]: 2.12 nM
koff [1]: 0.000339 s⁻¹
Kd [2]: 222 nM
koff [2]: 0.00399 s⁻¹

B9: G1 variant M45 Fab (Fab, V domains shown)
VH: B4 VH with E54K, A57N, S58E, E64D
VL: B4 VL with R30T, G50A, L56T
notes: Fab; constant domains as m1
Kd [1]: 1.85 nM
koff [1]: 0.000211 s⁻¹
Kd [2]: 259 nM
koff [2]: 0.00558 s⁻¹

B12: G1 variant M44 Fab (Fab, V domains shown)
VH: B4 VH with E54K, A57N, S58E
VL: B4 VL with R30T, G50A, L56T
notes: Fab; constant domains as m1
Kd [1]: 2.05 nM
koff [1]: 0.00021 s⁻¹
Kd [2]: 443 nM
koff [2]: 0.00613 s⁻¹

B13: G1 variant M62 Fab (Fab, V domains shown)
VH: B4 VH with E54K, A57N, S58E
VL: B4 VL with R30G, A51H, L56T
notes: Fab; constant domains as m1
Kd [1]: 5.86 nM
koff [1]: 0.000557 s⁻¹
Kd [2]: 242 nM
koff [2]: 0.00575 s⁻¹

B14: G1 variant M59 Fab (Fab, V domains shown)
VH: B4 VH with E54K, A57N, S58N, H61F
VL: B4 VL with R30D, L56S
notes: Fab; constant domains as m1
Kd [1]: 3.28 nM
koff [1]: 0.000524 s⁻¹
Kd [2]: 683 nM
koff [2]: 0.0123 s⁻¹

B15: G1 variant M51 Fab (Fab, V domains shown)
VH: B4 VH with E54K, A57G
VL: B4 VL with R30T, L56I
notes: Fab; constant domains as m1; printed L561 read as L56I
Kd [1]: 0.82 nM
koff [1]: 0.000131 s⁻¹
Kd [2]: 65.6 nM
koff [2]: 0.00118 s⁻¹

Next, values leading:

Kd [1]: 4.04 nM
koff [1]: 0.000646 s⁻¹
Kd [2]: 121 nM
koff [2]: 0.00217 s⁻¹
B1: G1 variant M34 Fab (Fab, V domains shown)
VH: B4 VH with E54K, A57N, S58T
VL: B4 VL with R30G
notes: Fab; constant domains as m1

Kd [1]: 1.64 nM
koff [1]: 0.000263 s⁻¹
Kd [2]: 252 nM
koff [2]: 0.00453 s⁻¹
B2: G1 variant M43 Fab (Fab, V domains shown)
VH: B4 VH with E54K, A57N, S58C
VL: B4 VL with R30T, G50A, L56T
notes: Fab; constant domains as m1

Kd [1]: 12.2 nM
koff [1]: 0.00195 s⁻¹
binding result [2]: no binding
B3: G1 variant M58 Fab (Fab, V domains shown)
VH: B4 VH with E54K, A57N, S58I, H61F
VL: B4 VL with R30D, L56S
notes: Fab; constant domains as m1

Kd [1]: 2.61 nM
koff [1]: 0.000417 s⁻¹
Kd [2]: 418 nM
koff [2]: 0.00752 s⁻¹
B6: G1 variant M42 Fab (Fab, V domains shown)
VH: B4 VH with E54K, A57N, H61F
VL: B4 VL with R30T, G50A, L56T
notes: Fab; constant domains as m1

Kd [1]: 5.26 nM
koff [1]: 0.000842 s⁻¹
Kd [2]: 1910 nM
koff [2]: 0.0343 s⁻¹
B7: G1 variant M48 Fab (Fab, V domains shown)
VH: B4 VH with E54K, A57N, S58L
VL: B4 VL with R30T, G50A, L56T
notes: Fab; constant domains as m1

Kd [1]: 1.76 nM
koff [1]: 0.000281 s⁻¹
Kd [2]: 127 nM
koff [2]: 0.00229 s⁻¹
B8: G1 variant M52 Fab (Fab, V domains shown)
VH: B4 VH with E54K, A57N, S58A
VL: B4 VL with R30T, L56I
notes: as for B15

Kd [1]: 5.02 nM
koff [1]: 0.000803 s⁻¹
Kd [2]: 226 nM
koff [2]: 0.00407 s⁻¹
B10: G1 variant M65 Fab (Fab, V domains shown)
VH: B4 VH with E54K, A57C
VL: B4 VL with R30G, G50A, L56I
notes: Fab; constant domains as m1

Kd [1]: 11.2 nM
koff [1]: 0.00179 s⁻¹
Kd [2]: 120 nM
koff [2]: 0.00216 s⁻¹
B11: G1 variant M54 Fab (Fab, V domains shown)
VH: B4 VH with E54K, A57N, S58P
VL: B4 VL with R30A, G50A
notes: Fab; constant domains as m1

Kd [1]: 2.99 nM
koff [1]: 0.000478 s⁻¹
Kd [2]: 325 nM
koff [2]: 0.00585 s⁻¹
B16: G1 variant M55 Fab (Fab, V domains shown)
VH: B4 VH with E54K, A57N, S58E, E64D
VL: B4 VL with R30A, L56S
notes: Fab; constant domains as m1
